In the data set the target is 3-ketomyristoyl-ACP (enzymatically prepared from ShACP).

The record followed here is patent US20110289632.

B1: ShMKS1 (methylketone synthase 1 from Solanum habrochaites f glabratum), recombinant, His-tagged (protein)
chain: MEKSMSPFVKKHFVLVHTAFHGAWCWYKIVALMRSSGHNVTALDLGASGINPKQALQIPNFSDYLSPLMEFMASLPANEKIILVGHALGGLAISKAMETFPEKISVAVFLSGLMPGPNIDATTVCTKAGSAVLGQLDNCVTYENGPTNPPTTLIAGPKFLATNVYHLSPIEDLALATALVRPLYLYLAEDISKEVVLSSKRYGSVKRVFIVATENDALKKEFLKLMIEKNPPDEVKEIEGSDHVTMMSKPQQLFTTLLSIANKYK
Consider B1, for which the “amount of 2-tridecanone formed (in vitro thioesterase activity assay, direct hexane extraction, GC-MS)” value is “slightly higher, but not significantly so (t test, p=0.062, α=0.05), than the amount found in the buffer-incubated sample treated with acid and heat”.
